In patent US20250277020A1 (Boehringer Ingelheim, published 2025):
Residue numbers refer to the chain shown, from its start.

T1: Full-length human CTGF (human, UniProt P29279 27-349)
T1 construct: Corresponds to NCBI NP_001892.1 with the signal peptide omitted; purchased from R&D Systems; also called hCTGF full length; full length CTGF
T1 sequence: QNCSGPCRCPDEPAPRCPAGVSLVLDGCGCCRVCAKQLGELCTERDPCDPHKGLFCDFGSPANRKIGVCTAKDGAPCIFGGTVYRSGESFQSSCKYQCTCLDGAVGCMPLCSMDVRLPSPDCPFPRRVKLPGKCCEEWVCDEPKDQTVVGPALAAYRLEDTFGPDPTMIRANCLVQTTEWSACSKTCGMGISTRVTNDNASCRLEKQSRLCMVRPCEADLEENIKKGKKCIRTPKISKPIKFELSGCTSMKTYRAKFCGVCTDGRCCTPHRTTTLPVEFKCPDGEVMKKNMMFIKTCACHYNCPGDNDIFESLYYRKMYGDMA

B1: A105 (antibody, human IgG1, kappa, L234A L235A)
light: DIVMTQTPLSLSVSLGDQASISCKSSQSIVHYNGNTYLEWYLQKPGQSPQLLIYKVSSRASGVPDRFSGSGSGTDFTLKISRVEAEDLGVYYCFQGSHFPLTFGQGTKLEIKRTVAAPSVFIFPPSDEQLKSGTASVVCLLNNFYPREAKVQWKVDNALQSGNSQESVTEQDSKDSTYSLSSTLTLSKADYEKHKVYACEVTHQGLSSPVTKSFNRGEC
heavy: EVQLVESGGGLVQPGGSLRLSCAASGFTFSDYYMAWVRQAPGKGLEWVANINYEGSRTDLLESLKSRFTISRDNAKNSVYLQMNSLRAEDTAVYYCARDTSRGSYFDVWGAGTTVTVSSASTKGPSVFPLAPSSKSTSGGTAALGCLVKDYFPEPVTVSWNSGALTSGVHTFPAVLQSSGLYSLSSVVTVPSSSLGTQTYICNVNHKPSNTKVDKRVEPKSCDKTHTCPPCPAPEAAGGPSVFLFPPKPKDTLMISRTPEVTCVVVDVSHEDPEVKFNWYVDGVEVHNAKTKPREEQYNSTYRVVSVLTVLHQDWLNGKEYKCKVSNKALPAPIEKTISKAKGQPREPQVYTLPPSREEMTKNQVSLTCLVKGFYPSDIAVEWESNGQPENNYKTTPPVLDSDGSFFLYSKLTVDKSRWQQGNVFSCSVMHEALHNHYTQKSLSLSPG
B2: A110 (antibody, human IgG1, kappa, L234A L235A)
light: B1 light
heavy: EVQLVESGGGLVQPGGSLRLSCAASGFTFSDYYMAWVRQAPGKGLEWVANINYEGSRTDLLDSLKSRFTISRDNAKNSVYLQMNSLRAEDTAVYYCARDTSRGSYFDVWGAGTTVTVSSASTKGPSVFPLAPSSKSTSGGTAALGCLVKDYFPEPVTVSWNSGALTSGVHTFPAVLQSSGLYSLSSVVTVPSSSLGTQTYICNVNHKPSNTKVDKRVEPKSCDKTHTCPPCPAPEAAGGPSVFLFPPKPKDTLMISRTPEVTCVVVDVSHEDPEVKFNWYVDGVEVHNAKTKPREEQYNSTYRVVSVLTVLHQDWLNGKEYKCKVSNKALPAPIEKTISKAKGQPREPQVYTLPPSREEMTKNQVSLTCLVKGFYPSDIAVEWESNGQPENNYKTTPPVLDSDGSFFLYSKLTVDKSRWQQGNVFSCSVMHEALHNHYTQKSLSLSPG
B3: A114 (antibody, human IgG1, kappa, L234A L235A)
light: B1 light with G34E, N35K
heavy: not shown
B4: A108 (antibody, human IgG1, kappa, L234A L235A)
light: B1 light
heavy: not shown
B5: A112 (antibody, human IgG1, kappa, L234A L235A)
light: B1 light
heavy: not shown
B6: A115 (antibody, human IgG1, kappa, L234A L235A)
light: B1 light with G34E, N35K
heavy: not shown
B7: A107 (antibody, human IgG1, kappa, L234A L235A)
light: B1 light
heavy: not shown
B8: A118 (antibody, human IgG1, kappa, L234A L235A)
light: B1 light with G34E, N35K
heavy: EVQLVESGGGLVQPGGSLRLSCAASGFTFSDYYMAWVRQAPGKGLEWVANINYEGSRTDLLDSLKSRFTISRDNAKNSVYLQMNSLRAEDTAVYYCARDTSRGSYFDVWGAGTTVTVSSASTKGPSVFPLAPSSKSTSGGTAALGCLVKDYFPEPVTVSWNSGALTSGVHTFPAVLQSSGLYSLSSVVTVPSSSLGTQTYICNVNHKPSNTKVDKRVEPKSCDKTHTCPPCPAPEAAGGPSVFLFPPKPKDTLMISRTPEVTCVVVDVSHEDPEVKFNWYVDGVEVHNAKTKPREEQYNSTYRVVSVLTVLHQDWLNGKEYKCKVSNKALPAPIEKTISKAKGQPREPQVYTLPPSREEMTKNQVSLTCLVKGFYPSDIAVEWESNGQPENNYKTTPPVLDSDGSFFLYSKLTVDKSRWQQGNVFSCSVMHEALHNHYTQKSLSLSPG
B9: A106 (antibody, human IgG1, kappa, L234A L235A)
light: B1 light
heavy: not shown
B10: A117 (antibody, human IgG1, kappa, L234A L235A)
light: B1 light with G34E, N35K
heavy: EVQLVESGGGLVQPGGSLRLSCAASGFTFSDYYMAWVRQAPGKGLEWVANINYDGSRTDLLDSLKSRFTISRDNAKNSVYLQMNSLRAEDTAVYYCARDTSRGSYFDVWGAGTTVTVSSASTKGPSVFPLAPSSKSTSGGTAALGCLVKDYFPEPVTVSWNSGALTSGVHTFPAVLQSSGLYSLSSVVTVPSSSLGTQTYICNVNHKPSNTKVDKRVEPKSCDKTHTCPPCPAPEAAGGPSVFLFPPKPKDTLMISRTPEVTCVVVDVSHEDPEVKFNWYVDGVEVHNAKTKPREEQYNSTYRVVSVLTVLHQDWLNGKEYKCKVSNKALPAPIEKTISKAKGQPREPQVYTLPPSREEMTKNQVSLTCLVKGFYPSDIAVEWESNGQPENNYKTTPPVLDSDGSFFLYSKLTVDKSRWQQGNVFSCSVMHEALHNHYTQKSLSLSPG
B11: A111 (antibody, human IgG1, kappa, L234A L235A)
light: B1 light
heavy: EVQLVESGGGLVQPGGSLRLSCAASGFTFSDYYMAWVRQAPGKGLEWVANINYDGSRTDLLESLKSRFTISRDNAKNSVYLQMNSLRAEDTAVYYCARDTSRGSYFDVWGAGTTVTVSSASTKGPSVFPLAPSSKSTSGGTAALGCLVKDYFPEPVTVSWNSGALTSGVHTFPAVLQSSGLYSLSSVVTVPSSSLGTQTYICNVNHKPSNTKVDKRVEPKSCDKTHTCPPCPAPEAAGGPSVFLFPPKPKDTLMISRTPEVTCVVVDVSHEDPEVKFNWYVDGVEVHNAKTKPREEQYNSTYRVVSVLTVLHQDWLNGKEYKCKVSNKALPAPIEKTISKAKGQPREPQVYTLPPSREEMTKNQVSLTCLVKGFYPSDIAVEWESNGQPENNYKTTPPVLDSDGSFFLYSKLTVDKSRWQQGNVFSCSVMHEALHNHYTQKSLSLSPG
B12: A116 (antibody, human IgG1, kappa, L234A L235A)
light: B1 light with G34E, N35K
heavy: not shown
B13: A109 (antibody, human IgG1, kappa, L234A L235A)
light: B1 light
heavy: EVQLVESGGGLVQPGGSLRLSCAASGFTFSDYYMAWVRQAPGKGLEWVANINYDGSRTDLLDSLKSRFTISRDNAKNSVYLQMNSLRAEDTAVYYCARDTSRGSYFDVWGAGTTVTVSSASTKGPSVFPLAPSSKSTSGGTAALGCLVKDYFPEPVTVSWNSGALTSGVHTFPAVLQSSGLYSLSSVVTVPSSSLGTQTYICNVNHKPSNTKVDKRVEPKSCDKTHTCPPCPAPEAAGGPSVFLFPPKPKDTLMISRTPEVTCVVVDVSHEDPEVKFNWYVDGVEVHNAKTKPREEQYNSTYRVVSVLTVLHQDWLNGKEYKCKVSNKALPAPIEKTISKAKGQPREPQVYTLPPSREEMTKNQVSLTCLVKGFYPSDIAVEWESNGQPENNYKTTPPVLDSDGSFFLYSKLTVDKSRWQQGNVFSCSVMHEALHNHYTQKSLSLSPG
B14: A113 (antibody, human IgG1, kappa, L234A L235A)
light: B1 light with G34E, N35K
heavy: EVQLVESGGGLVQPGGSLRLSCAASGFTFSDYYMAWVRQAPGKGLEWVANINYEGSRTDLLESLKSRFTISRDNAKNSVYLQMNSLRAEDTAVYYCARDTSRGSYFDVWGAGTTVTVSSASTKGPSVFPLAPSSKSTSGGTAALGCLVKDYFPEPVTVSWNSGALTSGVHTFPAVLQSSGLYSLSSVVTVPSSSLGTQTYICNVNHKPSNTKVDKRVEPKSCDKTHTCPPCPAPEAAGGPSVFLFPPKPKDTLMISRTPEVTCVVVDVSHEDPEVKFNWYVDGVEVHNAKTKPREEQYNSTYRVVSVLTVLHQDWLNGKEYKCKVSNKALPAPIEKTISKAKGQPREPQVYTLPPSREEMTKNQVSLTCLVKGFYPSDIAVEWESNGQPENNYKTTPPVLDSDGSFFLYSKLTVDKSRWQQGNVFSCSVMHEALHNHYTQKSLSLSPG
B15: A94 (antibody, human IgG1, kappa, L234A L235A, V domains shown)
VH: EVQLVESGGGLVQPGGSLRLSCAASGFTFSDYYMAWVRQAPGKGLEWVANINYEGSRTDLLDSLKSRFTISRDNAKNSVYLQMNSLRAEDTAVYYCARDTSRGSYFDVWGAGTTVTVSS
VL: VVMTQTPLSLSVSLGDQASISCKSSQSIVHYNGNTYLEWYLQKPGQSPQLLIYKVSSRFSGVPDRFSGSGSGTDFTLKISRVEAEDLGVYYCFQGSHFPLTFGQGTKLEIKR
B16: A123 (antibody, human IgG1, kappa, L234A L235A, V domains shown)
VH: B15 VH with D62A
VL: B15 VL with S11P, K23R, S57N, F59D
B17: A125 (antibody, human IgG1, kappa, L234A L235A)
light: VVMTQTPLSLPVSLGDQASISCRSSQSIVHYNGNTYLEWYLQKPGQSPQLLIYKVSNRDSGVPDRFSGSGSGTDFTLKISRVEAEDLGVYYCFQGSHFPLTFGQGTKLEIKRTVAAPSVFIFPPSDEQLKSGTASVVCLLNNFYPREAKVQWKVDNALQSGNSQESVTEQDSKDSTYSLSSTLTLSKADYEKHKVYACEVTHQGLSSPVTKSFNRGEC
heavy: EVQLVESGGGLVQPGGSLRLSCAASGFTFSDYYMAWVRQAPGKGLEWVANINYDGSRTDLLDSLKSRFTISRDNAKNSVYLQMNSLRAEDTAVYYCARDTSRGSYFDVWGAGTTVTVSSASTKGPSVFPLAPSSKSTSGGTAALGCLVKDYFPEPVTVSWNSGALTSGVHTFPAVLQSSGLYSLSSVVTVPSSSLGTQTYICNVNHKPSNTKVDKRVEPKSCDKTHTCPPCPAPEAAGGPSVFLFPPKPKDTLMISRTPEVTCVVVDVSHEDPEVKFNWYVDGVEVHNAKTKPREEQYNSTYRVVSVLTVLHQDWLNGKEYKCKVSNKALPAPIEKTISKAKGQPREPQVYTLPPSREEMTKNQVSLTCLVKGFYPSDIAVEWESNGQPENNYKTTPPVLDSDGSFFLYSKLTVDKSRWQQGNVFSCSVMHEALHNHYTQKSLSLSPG
B18: A104 (antibody, human IgG1, kappa, L234A L235A)
light: B17 light with P11S, R23K, N57S, D59A
heavy: not shown
B19: A101 (antibody, human IgG1, kappa, L234A L235A)
light: B17 light with P11S, R23K, N57S, D59A
heavy: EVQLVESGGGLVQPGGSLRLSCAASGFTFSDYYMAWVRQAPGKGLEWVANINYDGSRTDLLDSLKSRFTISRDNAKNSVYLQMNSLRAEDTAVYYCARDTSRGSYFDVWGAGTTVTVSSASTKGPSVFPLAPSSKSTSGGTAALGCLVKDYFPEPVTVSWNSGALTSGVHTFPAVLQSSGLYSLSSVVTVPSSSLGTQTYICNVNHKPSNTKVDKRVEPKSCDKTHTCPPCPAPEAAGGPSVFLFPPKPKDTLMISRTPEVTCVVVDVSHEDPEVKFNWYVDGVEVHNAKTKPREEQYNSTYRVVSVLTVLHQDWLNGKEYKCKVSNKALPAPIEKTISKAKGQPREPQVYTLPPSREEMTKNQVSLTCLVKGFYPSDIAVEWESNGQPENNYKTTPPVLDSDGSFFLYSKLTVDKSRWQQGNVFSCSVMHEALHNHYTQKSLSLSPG
B20: A128 (antibody, human IgG1, kappa, L234A L235A)
light: B17 light
heavy: not shown
notes: humanized from the 15 pM mouse clone; also called humanized antibody A128
B21: A99 (antibody, human IgG1, kappa, L234A L235A)
light: B17 light with P11S, R23K, N57S, D59A
heavy: not shown
B22: A122 (antibody, human IgG1, kappa, L234A L235A, V domains shown)
VH: B15 VH with E54Y, D62E
VL: B15 VL with S11P, K23R, S57N, F59D
B23: A127 (antibody, human IgG1, kappa, L234A L235A, V domains shown)
VH: B15 VH with E54D, D62E
VL: B15 VL with S11P, K23R, S57N, F59D
B24: A98 (antibody, human IgG1, kappa, L234A L235A)
light: B17 light with P11S, R23K, N57S, D59A
heavy: not shown
B25: A96 (antibody, human IgG1, kappa, L234A L235A)
light: B17 light with P11S, R23K, N57S, D59F
heavy: not shown
B26: A124 (antibody, human IgG1, kappa, L234A L235A, V domains shown)
VH: B15 VH with E54Y, D62A
VL: B15 VL with S11P, K23R, S57N, F59D
B27: A95 (antibody, human IgG1, kappa, L234A L235A, V domains shown)
VH: B15 VH with E54D, D62E
VL: B15 VL
B28: A103 (antibody, human IgG1, kappa, L234A L235A)
light: B17 light with P11S, R23K, N57S, D59A
heavy: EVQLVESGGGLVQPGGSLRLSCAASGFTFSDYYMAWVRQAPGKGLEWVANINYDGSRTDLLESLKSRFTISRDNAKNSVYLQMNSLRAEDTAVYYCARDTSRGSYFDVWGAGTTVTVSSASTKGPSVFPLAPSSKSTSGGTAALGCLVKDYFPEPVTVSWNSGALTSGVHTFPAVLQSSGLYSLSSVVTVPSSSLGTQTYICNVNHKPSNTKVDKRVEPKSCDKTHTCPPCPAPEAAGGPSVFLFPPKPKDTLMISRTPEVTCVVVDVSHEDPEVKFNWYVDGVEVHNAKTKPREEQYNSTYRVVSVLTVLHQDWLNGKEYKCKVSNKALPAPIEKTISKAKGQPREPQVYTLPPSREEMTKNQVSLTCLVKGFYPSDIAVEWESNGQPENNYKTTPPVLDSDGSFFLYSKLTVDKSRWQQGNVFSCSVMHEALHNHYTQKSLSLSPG
B29: A100 (antibody, human IgG1, kappa, L234A L235A)
light: B17 light with P11S, R23K, N57S, D59A
heavy: not shown
B30: A121 (antibody, human IgG1, kappa, L234A L235A, V domains shown)
VH: B15 VH with D62E
VL: B15 VL with S11P, K23R, S57N, F59D
B31: A126 (antibody, human IgG1, kappa, L234A L235A, V domains shown)
VH: B15 VH
VL: B15 VL with S11P, K23R, S57N, F59D
B32: A102 (antibody, human IgG1, kappa, L234A L235A)
light: B17 light with P11S, R23K, N57S, D59A
heavy: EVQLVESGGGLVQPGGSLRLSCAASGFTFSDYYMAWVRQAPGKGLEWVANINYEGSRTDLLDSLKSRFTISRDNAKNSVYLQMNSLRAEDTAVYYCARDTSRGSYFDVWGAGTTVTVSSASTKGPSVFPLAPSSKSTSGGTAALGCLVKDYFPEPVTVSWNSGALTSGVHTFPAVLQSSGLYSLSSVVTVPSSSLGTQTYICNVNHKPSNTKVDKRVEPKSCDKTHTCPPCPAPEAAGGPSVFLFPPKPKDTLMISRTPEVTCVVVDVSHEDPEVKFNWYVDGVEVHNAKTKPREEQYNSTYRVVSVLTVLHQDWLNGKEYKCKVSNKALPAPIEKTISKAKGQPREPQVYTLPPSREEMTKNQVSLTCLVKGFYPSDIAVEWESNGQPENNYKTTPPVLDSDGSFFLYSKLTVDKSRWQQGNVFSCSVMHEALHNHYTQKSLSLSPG

target: T1, Full-length human CTGF; test: SPR, full length CTGF

Binder | Kd [nM]
B1 | 0.42
B2 | 0.45
B3 | 0.75
B4 | 0.42
B5 | 0.48
B6 | 0.66
B7 | 0.37
B8 | 0.81
B9 | 0.43
B10 | 0.81
B11 | 0.51
B12 | 0.69
B13 | 0.44
B14 | 0.76
B15 | 0.19
B16 | 0.21

Binder | Kd [nM]
B17 | 0.26
B18 | 0.17
B19 | 0.17
B20 | 0.27
B21 | 0.11
B22 | 0.23
B23 | 0.28
B24 | 0.12
B25 | 0.19
B26 | 0.25
B27 | 0.19
B28 | 0.15
B29 | 0.13
B30 | 0.24
B31 | 0.27
B32 | 0.15
